According to US20260009008A1, “SYNTHETIC GENOME EDITING SYSTEM” (Pencil Biosciences Limited, priority 2021, published 2026):
“Also recorded” adds a separate entry of the source.

Legend:
Thioflavin T assay = format: physicochemical; conditions: 200 μM peptide, 25 μM ThT, 37° C., excitation 450 nm
Excerpt: Appropriate self-assembling peptides (alternatively referred to as folding peptides as in a single folding structure) will form a structure which can be identified by thioflavin T (Tht) binding. Fluorescence emission assay of Thioflavin T binding is commonly employed to detect amyloid fibrils. Upon binding to amyloid fibrils, ThT gives a strong fluorescence signal at approximately 482-485 nm when excited at 450 nm (Xue et al. (2017) Royal. Soc. Open Sci. 4:160696, 'Thioflavin T as an amyloid dye: fibril quantification, optimal concentration and effect on aggregation).
Such peptides were tested for ability to self-assemble to provide a β-sheet supramolecular structure and nickase activity. Ability to provide a β-sheet supramolecular structure was determined by thioflavin T fluorescence binding (Xue et al. (2017) Royal Soc. Open Sci. 4:160696). Nickase activity was investigated by means of a molecular beacon assay combined with a gel plasmid cleavage assay.
Thioflavin T (ThT) was mixed with the peptides in reaction buffer solution. Peptides were diluted to 200 μM (from a stock solution of 4.4 mM in DMSO) using a reaction buffer solution (the same buffer as used for the initial molecular beacon assays as set out below). […] The emission signal at 485 nm was measured every 5 minutes using an excitation wavelength of 450 nm. […]

plasmid DNA (pBR322) = assay: Gel plasmid cleavage assay; format: biochemical
Excerpt: For this reason a further gel plasmid cleavage assay was employed to look for cleavage. Such a gel cleavage assay can differentiate between plasmid that is intact (no cleavage), nicked (ssDNA cleavage) and linearised (dsDNA cleavage) as the three plasmid species will migrate differently on an agarose gel. Intact plasmids have a supercoiled structure and therefore can migrate easily through an agarose gel whereas a ssDNA cleavage on the plasmid will relax this supercoiled structure. This produces a relaxed circle/nicked structure that migrates more slowly through the pores. The dsDNA cleavage of a plasmid produces a linearised plasmid. The linear structure migrates faster than a relaxed circular structure although not as fast as the supercoiled structure.
To optimize the assay, plasmid DNA (pBR322) was mixed with increasing concentrations of the peptide bL or bN, in the presence of Zn^2 + ions. […] The percentage of nicked species increases with greater peptide concentration for both bL and bN. […] An increasing proportion of the plasmid DNA is also observed in the wells of the gel. This DNA can be binding to the peptide causing a complex that is unable to migrate into the gel.

[1] = Observation of peptide aggregation / precipitation; format: physicochemical

LELDLHL [bD]
Thioflavin T emission signal at 485 nm (amyloid-like fibrils) (Thioflavin T assay): high emission signal was measured instantly; also recorded: higher propensity to produce a highly stable amyloid beta sheet structure; also recorded: indicative of production of amyloid β-sheet structure
cleavage of plasmid (plasmid DNA (pBR322)): some cleavage
percentage of cleavage versus peptide concentration (plasmid DNA (pBR322)): increase with peptide concentration
aggregation / precipitation of peptide [1]: least propensity to aggregate and to precipitate
